The record followed here is doi:10.1101/2025.09.09.675230.

Assay [1] concerns the target Measles virus hemagglutinin (H) ectodomain, untagged (HECT), residues 149-617 (Measles virus strain IC323 (Ichinose-B95a)). In words: cryo-EM structure.
The target of assay [2] is Measles virus hemagglutinin (H) ectodomain with twin StrepII tag (HECT-TS), residues 149-617 (Measles virus strain IC323 (Ichinose-B95a)). In words: cryo-EM structure.

In assay [1], “Measles virus hemagglutinin (H) ectodomain, untagged (HECT), residues 149-617 (domain or fragment)” returned a stoichiometry N of 2. The substance “Measles virus hemagglutinin (H) ectodomain with twin StrepII tag (HECT-TS), residues 149-617 (domain or fragment)” returned a stoichiometry N in assay [2] of 2.

Usually stoichiometry N stands for a count of units in the complex or per binding partner.
